Laboratory results published in patent US20230303719, “HUMANIZED 3E10 ANTIBODIES, VARIANTS, AND ANTIGEN BINDING FRAGMENTS THEREOF” (YALE UNIVERSITY, published 2023).

Experiments:
humanized 3E10 V66 (CHO) = humanized 3E10 V66 (CHO) (synthetic construct, UniProt P01857; SEQ:1-446,SEQ:1-218); assay: BLI; 1:1 model; antibody on AHC2 sensor; ka 3.08E5, kdis 7.99E-4; settings: tags: human Fc IgG; transiently expressed in CHO; chain copies: 2 heavy + 2 light (inferred); hairpin
[1] = target: humanized 3E10 V66 (HEK293) (synthetic construct, UniProt P01857; SEQ:1-446,SEQ:1-218); assay: BLI; 1:1 model; antibody on AHC2 sensor; ka 2.42E5, kdis 3.13E-4; settings: tags: human Fc IgG; transiently expressed in HEK293; chain copies: 2 heavy + 2 light (inferred); hairpin
[2] = target: 3E10-D31N (chimeric, murine VH/VL); assay: BLI; 1:1 model; antibody on AHC2 sensor; ka 2.29E5, kdis 4.76E-4; settings: tags: human Fc IgG; chain copies: 2 heavy + 2 light (inferred); hairpin
[3] = target: 3E10-D31N IgG4 S228P/F234A/L235A/H310Q (synthetic construct, UniProt P01861; SEQ:1-443,SEQ:1-218); assay: BLI; 1:1 model; antibody on AHC2 sensor; RNA 62.5-500 nM; settings: tags: human IgG4 Fc; chain copies: 2 heavy + 2 light (inferred); hairpin
[4] = target: 3E10-D31N IgG4 S228P/F234A/L235A (synthetic construct, UniProt P01861; SEQ:1-443,SEQ:1-218); assay: as above; settings: tags: human IgG4 Fc; chain copies: 2 heavy + 2 light (inferred); hairpin
[5] = target: 3E10-D31N IgG4 S228P/F234A/L235A/T307Q/N434A (synthetic construct, UniProt P01861; SEQ:1-443,SEQ:1-218); assay: as above; settings: tags: human IgG4 Fc; chain copies: 2 heavy + 2 light (inferred); hairpin
[6] = target: 3E10-D31N (chimeric, murine VH/VL); assay: as above; settings: tags: human Fc IgG; chain copies: 2 heavy + 2 light (inferred); hairpin
[7] = target: 3E10-D31N IgG4 S228P/F234A/L235A/M252Y/S254T/T256E (synthetic construct, UniProt P01861; SEQ:1-443,SEQ:1-218); assay: as above; settings: tags: human IgG4 Fc; chain copies: 2 heavy + 2 light (inferred); hairpin

humanized 3E10 V66 (HEK293), sequence (P01857 other isoform, or with tags, fused parts or gaps, chain 1 of 2): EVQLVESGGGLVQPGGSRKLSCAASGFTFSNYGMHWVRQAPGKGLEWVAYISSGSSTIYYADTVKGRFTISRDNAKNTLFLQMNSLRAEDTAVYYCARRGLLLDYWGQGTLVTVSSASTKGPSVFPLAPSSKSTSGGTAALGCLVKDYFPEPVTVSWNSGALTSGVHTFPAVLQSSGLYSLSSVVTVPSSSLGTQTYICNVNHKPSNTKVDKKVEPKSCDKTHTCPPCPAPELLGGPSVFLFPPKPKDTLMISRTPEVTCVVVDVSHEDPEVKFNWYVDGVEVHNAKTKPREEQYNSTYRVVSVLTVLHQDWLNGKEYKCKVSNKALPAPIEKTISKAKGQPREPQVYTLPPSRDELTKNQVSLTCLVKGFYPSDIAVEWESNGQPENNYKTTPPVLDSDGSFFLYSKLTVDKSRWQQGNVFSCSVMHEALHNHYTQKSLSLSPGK
humanized 3E10 V66 (HEK293), sequence (chain, as listed by the source, chain 2 of 2): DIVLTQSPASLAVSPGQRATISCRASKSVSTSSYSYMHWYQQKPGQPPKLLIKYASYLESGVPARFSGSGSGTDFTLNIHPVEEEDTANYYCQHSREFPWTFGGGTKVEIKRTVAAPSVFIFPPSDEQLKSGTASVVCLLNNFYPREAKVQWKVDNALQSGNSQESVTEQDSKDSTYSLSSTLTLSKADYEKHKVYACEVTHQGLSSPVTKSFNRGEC
humanized 3E10 V66 (CHO), sequence (P01857 other isoform, or with tags, fused parts or gaps, chain 1 of 2): as the sequence (P01857 other isoform, or with tags, fused parts or gaps, chain 1 of 2) above
humanized 3E10 V66 (CHO), sequence (chain, as listed by the source, chain 2 of 2): as the sequence (chain, as listed by the source, chain 2 of 2) above

B1: 3p-hpRNA RIG-I agonist (89 nt) (ssRNA)
RNA: GGAGCAAAAGCAGGGUGACAAAGACAUAAUGGAUCCAAACACUGUGUCAAGCUUUCAGGUAGAUUGCUUUCUUUGGCAUGUCCGCAAAC
modifications: 5'-triphosphate
- Kd (humanized 3E10 V66 (CHO)): 2.6 nM
- Kd [1]: 1.3 nM
- Kd [2]: 2.08 nM
- Kd [3]: 6.58 nM
- Kd [4]: 3.33 nM
- Kd [5]: 12.7 nM
- Kd [6]: 10.5 nM
- Kd [7]: 5 nM
